# Where two headings read alike, the source gives them in different places. Ends that are not written are not given here. * marks the point of attachment. FITC = O=C1OC2(c3ccc(O)cc3Oc3cc(O)ccc32)c2ccc(NC(=S)*)cc21
# T1: G3BP2 NTF2 domain (human, UniProt Q9UN86 11-133)
# T1 sequence (looked up): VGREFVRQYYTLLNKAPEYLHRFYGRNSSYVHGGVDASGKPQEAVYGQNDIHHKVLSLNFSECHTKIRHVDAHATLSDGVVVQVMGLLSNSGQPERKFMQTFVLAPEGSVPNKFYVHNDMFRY
# T2: G3BP2 NTF2 domain, His-GST-tagged (human, UniProt Q9UN86 11-133)
# T2 sequence (looked up): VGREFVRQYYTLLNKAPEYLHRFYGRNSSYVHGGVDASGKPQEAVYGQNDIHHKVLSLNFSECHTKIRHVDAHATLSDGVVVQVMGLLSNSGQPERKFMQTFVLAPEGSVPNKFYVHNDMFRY
# Legend:
# Conditions in all cases: both partners purified
# G3BP1 NTF2 domain = G3BP1 NTF2 domain (human, UniProt Q13283 11-133)
# Sequence of G3BP1 NTF2 domain (Q13283 11-133): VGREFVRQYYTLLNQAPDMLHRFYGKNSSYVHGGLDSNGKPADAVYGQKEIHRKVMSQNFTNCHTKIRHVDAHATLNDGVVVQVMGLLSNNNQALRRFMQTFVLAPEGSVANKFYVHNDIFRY
# G3BP2 NTF2 domain = target: T1, G3BP2 NTF2 domain
# [1] = target: G3BP1 NTF2 domain, His-GST-tagged (human, UniProt Q13283 11-133)
# Sequence of G3BP1 NTF2 domain, His-GST-tagged (Q13283 11-133): as above
# [2] = target: T2, G3BP2 NTF2 domain, His-GST-tagged
# USP7 MATH domain = USP7 MATH domain (human, UniProt Q93009 68-195)
# Sequence of USP7 MATH domain (Q93009 68-195): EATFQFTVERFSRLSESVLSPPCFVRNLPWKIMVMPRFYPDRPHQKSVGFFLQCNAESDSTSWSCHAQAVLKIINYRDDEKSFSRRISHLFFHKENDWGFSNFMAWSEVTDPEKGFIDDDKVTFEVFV
# Ezrin FERM domain [3] = target: T3, Ezrin FERM domain (human, UniProt P15311 2-296)
# T3 construct: also called EZR FERM
# T3 sequence (P15311 2-296): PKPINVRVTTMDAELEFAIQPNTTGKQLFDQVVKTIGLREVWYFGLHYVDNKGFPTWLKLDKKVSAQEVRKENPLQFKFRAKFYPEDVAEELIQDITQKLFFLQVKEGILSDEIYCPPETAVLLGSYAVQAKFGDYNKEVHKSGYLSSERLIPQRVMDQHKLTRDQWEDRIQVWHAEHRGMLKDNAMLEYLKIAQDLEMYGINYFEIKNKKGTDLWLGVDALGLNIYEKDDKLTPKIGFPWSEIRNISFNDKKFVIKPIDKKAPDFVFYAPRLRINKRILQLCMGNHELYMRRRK
# Radixin FERM domain [4] = target: T4, Radixin FERM domain (human, UniProt P35241 5-295)
# T4 construct: also called RDX; RDX FERM
# T4 sequence (P35241 5-295): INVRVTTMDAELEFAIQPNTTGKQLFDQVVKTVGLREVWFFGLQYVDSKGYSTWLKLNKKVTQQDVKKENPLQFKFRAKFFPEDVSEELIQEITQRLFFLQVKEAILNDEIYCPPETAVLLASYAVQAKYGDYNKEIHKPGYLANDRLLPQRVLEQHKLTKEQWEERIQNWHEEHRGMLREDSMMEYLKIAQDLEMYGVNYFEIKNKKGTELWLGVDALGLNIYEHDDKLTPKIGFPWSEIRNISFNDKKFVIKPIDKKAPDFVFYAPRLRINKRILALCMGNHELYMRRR
# Ezrin FERM domain [5] = target: Ezrin FERM domain (human, UniProt P15311 2-296)
# Target sequence in this assay (P15311 2-296): as the sequence (P15311 2-296) above
# Radixin FERM domain [6] = target: T5, Radixin FERM domain (human, UniProt P35241 5-295)
# T5 construct: also called RDX
# T5 sequence (P35241 5-295): as the sequence (P35241 5-295) above
Binder,IC50 (G3BP1 NTF2 domain),IC50 (G3BP2 NTF2 domain),Ki (G3BP2 NTF2 domain),further results
APRITFGGPTDSTDNY [N peptide 13-27 (Sars-CoV)],10 µM,–,–,–
ESLPFSFGTLSSWELE [DDIT3 peptide 4-19],–,30 µM,12 µM,–
{FITC}-APRITFGGPSDS [N FITC-APRITFGGPSDS],–,–,–,Kd [1]: 3.2 ± 0.1 µM; Kd [2]: 2.1 ± 0.1 µM
PVPPIEFGVSPKDSDY [PRRC2B peptide 1780-1794],–,53 µM,19 µM,–
{FITC}-DYSQPSTSSSIIY (also called MDM2 probe peptide) [MDM2 FITC-DYSQPSTSSSIIY],–,–,–,Kd (USP7 MATH domain): 0.49 ± 0.06 µM
{FITC}-YYSVNTFKEHHSTPTI (also called Kirrel probe peptide) [Kirrel FITC-YYSVNTFKEHHSTPTI],–,–,–,Kd (Ezrin FERM domain [3]): 1.4 ± 0.1 µM; Kd (Radixin FERM domain [4]): 0.485 ± 0.003 µM
QGLPLEFGASAETVRY [NSP3 peptide 958-972 (Sars-CoV)],320 µM,130 µM,47 µM,Ki (G3BP1 NTF2 domain): 119 µM
AQMQGPYNFIQDSMLD [CAPRIN1 peptide 364-379],–,29 µM,–,–
NLQFGALQFGSEPVY [UBAP2L peptide 515-528],104 µM,79 µM,32 µM,–
VDTSNSFEVLAVEDTQY [NSP3 peptide 1996-2011 (Sars-CoV)],–,–,–,IC50 (Ezrin FERM domain [5]): 200 µM; Ki (Ezrin FERM domain [5]): 218 µM; IC50 (Radixin FERM domain [6]): 200 µM; Ki (Radixin FERM domain [6]): 56.2 µM
{FITC}-YYSVNTFKEHHSTPTI [FITC-Kirrel3 peptide 668-683],–,–,–,Kd (Radixin FERM domain [6]): 0.485 µM
PSKLPTFGAPEQLVDY [TRIM25 peptide 400-414],120 µM,53 µM,17 µM,Ki (G3BP1 NTF2 domain): 46 µM
APRAVTFGDNNDNNTY [N peptide 6-20 (Mers1)],130 µM,80 µM,–,Ki (G3BP1 NTF2 domain): 51 µM
